Assay results from patent US20030027180, “Nucleic acid shuffling” (published 2003).

Legend:
[1] = molecular target: T1, streptavidin (UniProt P22629 P22629:25-183); experiment: filter; 100 mM NaCl, 50 mM Tris pH 8.0, 5 mM MgCl2, room temperature, human genomic DNA competitor; conditions: tags: Sigma; chain copies: 4; label: 5'-32P
Procedure: (§1) Binding affinity assays: Affinities for streptavidin were measured using a radioactive filter binding assay. Pools or individual clones were amplified by PCR. One pmol was radiolabeled with 15 units T4 PNK and 10 μCi γ-³²P ATP (NEN) in T4 PNK buffer at 37° C., 1 h. Labeled DNA was extracted twice with phenol-chloroform and purified twice by gel filtration to remove ATP. The DNA was then denatured in water at 95° C. for 5 min together with 2 μg human genomic DNA (to block nonspecific DNA binding) per 5 fmol labeled DNA, and chilled in ice water for 5 mins. 5 fmol of labeled DNA plus 2 μg unlabeled human genomic DNA was added to varying amounts of streptavidin (0 to 1024 nM) in 50 μL of 100 mM NaCl, 50 mM Tris-Cl pH 8.0, 5 mM MgCl₂ (“assay buffer”), giving a final concentration of labeled DNA of 0.1 nM. The DNA and streptavidin were incubated at room temperature for 30 minutes. A multiscreen-HA 96 well nitrocellulose filter plate (Millipore), which retains protein-DNA complexes much better than free DNA, was pre-washed with 125 μL assay buffer then loaded with each assay sample. The samples were rapidly filtered on a vacuum manifold and the membranes washed twice with 250 uL of assay buffer. The membrane for each well was punched out from the plate using a stylus and the bound radioactive label quantitated by phosphorimager together with 1 fmol of unreacted probe.

[2] = molecular target: T1, streptavidin; experiment: filter; affinity comparable to error-prone PCR evolved sequences; no own Kd printed; conditions: tags: Sigma; chain copies: 4; stem-loop predicted by Mfold
Procedure: as §1

[3] = molecular target: T1, streptavidin; experiment: filter; no streptavidin affinity; conditions: tags: Sigma; chain copies: 4
Procedure: as §1

T1 sequence (P22629 25-183, one chain of several): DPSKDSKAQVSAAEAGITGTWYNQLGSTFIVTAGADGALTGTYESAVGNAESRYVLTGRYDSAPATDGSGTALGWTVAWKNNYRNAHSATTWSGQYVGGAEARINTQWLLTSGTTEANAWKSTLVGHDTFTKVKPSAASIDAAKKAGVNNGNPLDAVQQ

B1: 13x16 #1 (ssDNA)
DNA: GAAAACTGCTCATATGATTGATTAGCCCGCTGCTCGTCCAAATGACGGCTCAGCTCTGTATTTTTAGCGTCTGTGAGACAGAACCTGCGACCGGTGCGTCGTCTCACAGTCTACTGTATCTTCGCGTACCTTAGGTTTACCCGCTGCTCGTCCAAATGACGGCTCTCTGTGAGACAAAACCTGCGACCGGTGCGTCGTCTCACAGTAAGAGGGTTCTTGGATA
- Kd [1]: 4.7 nM

Binder: TCTGTGAGACGACGCACCGGTCGCAGGTTTTGTCTCACAG (ssDNA) [minimal 40-mer]
- binding result [2]: binds

Binder: CTGTGAGACAAAACCTGCGACCGGTGCGTCGTCTCACAGA (ssDNA) [complement strand of minimal 40-mer]
- binding result [3]: no binding
